Where a chain is given by its changes, count along the chain named.
Legend:
[1] = biological target: T1, CDO-IC-D1153N-D1164N (UniProt Q32MD9)
T1 sequence: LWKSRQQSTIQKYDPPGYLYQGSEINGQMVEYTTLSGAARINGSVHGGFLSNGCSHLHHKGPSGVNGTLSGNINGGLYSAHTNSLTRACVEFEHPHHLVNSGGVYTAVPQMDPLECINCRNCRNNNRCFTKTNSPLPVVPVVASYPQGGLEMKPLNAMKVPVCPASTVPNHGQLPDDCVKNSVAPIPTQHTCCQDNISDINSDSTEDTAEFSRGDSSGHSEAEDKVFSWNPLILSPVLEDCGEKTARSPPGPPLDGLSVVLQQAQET

[2] = biological target: T2, CDO-IC-D1153N (UniProt Q32MD9)
T2 sequence: T1 sequence with N181D

[3] = biological target: T3, CDO-IC with Asp1178 to Asn mutation (UniProt Q32MD9)
T3 sequence: T1 sequence with N170D, N181D, D195N

[4] = biological target: T4, CDO intracellular domain wild type (CDO-IC wt), in vitro-translated (UniProt Q32MD9)
T4 sequence: T1 sequence with N170D, N181D

Recombinant purified active caspase-3 was tested, and the “in vitro cleavage of in vitro-translated CDO-IC by purified active caspase-3 (autoradiograph, FIG. 5)” value (from here on “in vitro cleavage”) [1] was “Asp^1153/Asp^1164 to Asn double mutation almost completely suppressed caspase-3 cleavage”, the “in vitro cleavage” value [2] was “mutation of Asp^1153 to Asn (CDO-IC D1153N) strongly inhibited cleavage by caspase-3” and the “in vitro cleavage” value [3] was “the Asp^1178 to Asn mutation had no effect on CDO-IC cleavage”. The “in vitro cleavage” value [4] was “CDO intracellular domain (CDO-IC, amino acids 985 to 1250) was cleaved in vitro when incubated with purified active caspase-3”.
